Bridge positions count the residues as written; N and C are the ends. Square brackets hold non-standard residues; d marks the D form. Ends that are not written are not given here. Hyp = O=C(O)[C@@H]1C[C@@H](O)CN1; Cit = NC(=O)NCCC[C@H](N)C(=O)O
T1: hAMY3R (human, UniProt P30988)
T1 sequence 1: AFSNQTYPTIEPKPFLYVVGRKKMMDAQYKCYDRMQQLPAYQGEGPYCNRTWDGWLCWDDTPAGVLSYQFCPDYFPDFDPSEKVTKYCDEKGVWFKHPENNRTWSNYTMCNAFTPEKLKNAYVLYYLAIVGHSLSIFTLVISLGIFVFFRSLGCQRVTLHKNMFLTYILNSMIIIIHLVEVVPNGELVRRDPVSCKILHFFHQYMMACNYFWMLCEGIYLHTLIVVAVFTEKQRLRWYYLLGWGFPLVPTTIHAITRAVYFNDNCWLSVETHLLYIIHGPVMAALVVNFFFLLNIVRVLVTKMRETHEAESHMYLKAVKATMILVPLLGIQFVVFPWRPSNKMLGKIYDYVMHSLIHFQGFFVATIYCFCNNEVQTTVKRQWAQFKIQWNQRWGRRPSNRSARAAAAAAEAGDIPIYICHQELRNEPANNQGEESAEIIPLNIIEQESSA
T1 sequence 2: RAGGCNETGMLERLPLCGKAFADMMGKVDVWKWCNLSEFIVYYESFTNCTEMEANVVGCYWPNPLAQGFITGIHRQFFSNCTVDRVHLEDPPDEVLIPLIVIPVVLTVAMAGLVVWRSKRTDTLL


Columns and labels:
hAM1R = hAM1R (human, UniProt Q16602); experiment: cell-based or functional assay
hAMY3R = target: T1, hAMY3R; experiment: cell-based or functional assay

Binder	hAM1R EC50 (cAMP) (hAM1R) [nM]	hAMY3R EC50 (cAMP) (hAMY3R) [nM]
RCQASTCTVA[Cit]LAEQIAQYTDKDKDQVAPPTEVGPNS[Hyp]-NH2 (disulfide 2-7 (inferred); ends not checked) [SEQ ID NO: 33]	> 5000	0.008
RCQTSTCTVARLAEQIAQYTDKDKDQVAPPTNVGSNS[Hyp]-NH2 (disulfide 2-7 (inferred); ends not checked) [SEQ ID NO: 32]	> 5000	0.008
KCNTATCTVQWLAHQIAQFTDKDKDNVAPPTNVGSNG[Hyp]-NH2 (disulfide 2-7 (inferred); ends not checked) [SEQ ID NO: 309]	> 5000	0.025
KCNTATCTVQWLAHQIYQFADKDKDNVAPPTNVGSNG[Hyp]-NH2 (disulfide 2-7 (inferred); ends not checked) [SEQ ID NO: 313]	> 5000	0.004
KCNTATCTVQRLAHQIYQFTDKDKDNVAPRTKVGSNGY [SEQ ID NO: 34]	54.6	0.009
KCNTATCTVQWLAHQIYQFTDKDKANVAPPTNVGSNG[Hyp]-NH2 (disulfide 2-7 (inferred); ends not checked) [SEQ ID NO: 314]	> 5000	0.008
KCNTATCTVQWLAHQIYQFTDKDKDNVAPRTKVGSNG[Hyp]-NH2 (disulfide 2-7 (inferred); ends not checked) [SEQ ID NO: 312]	> 5000	0.012
KCNTSTCTVAWLADQITQFSDKDKANVSPPTEVGPNS[Hyp]-NH2 (disulfide 2-7 (inferred); ends not checked) [SEQ ID NO: 310]	> 5000	0.003
KCNTATCTVQRLAHQIYQFTDKDKDNVAPTNVGSNG[Hyp]-NH2 (disulfide 2-7 (inferred); ends not checked) [SEQ ID NO: 31]	> 5000	0.008
KCNTSTCTVAWLADQITQFSNKDKAQVSPPTEVGPNS[Hyp]-NH2 (disulfide 2-7 (inferred); ends not checked) [SEQ ID NO: 306]	> 5000	0.003
KCNTATCTVQWLAHQIYQFTDKDKDNAAPPTNVGSNG[Hyp]-NH2 (disulfide 2-7 (inferred); ends not checked) [SEQ ID NO: 315]	> 5000	0.012
GCRFGTCTVQWLANFLYQFTDKDKDNVAPRTNVGPQGY [SEQ ID NO: 311]	> 5000	0.06
RCNASTCTVNWLADQITQFSNKDKAQVSPPTEVGPNS[Hyp]-NH2 (disulfide 2-7 (inferred); ends not checked) [SEQ ID NO: 307]	> 5000	0.01
KCNTATCTVQWLAHAIYQFTDKDKDNVAPPTNVGSNG[Hyp]-NH2 (disulfide 2-7 (inferred); ends not checked) [SEQ ID NO: 308]	> 5000	0.014

The remaining lines, values ahead:

hAM1R EC50 (cAMP) (hAM1R) [nM]	hAMY3R EC50 (cAMP) (hAMY3R) [nM]	Binder
> 5000	0.007	GCRTGTCTVQWLAHQIYQFTDKDKDNVAPRTNVGPNGY [SEQ ID NO: 332]
> 5000	0.008	KCNTATCTVQWLAHQIYQFTDKDKDNVAPPTNVGSNG[Hyp]-NH2 (disulfide 2-7 (inferred); ends not checked) [SEQ ID NO: 330]
> 5000	0.01	KCNTATCTVQWLAHQIYQFTDADKDNVAPPTNVGSNG[Hyp]-NH2 (disulfide 2-7 (inferred); ends not checked) [SEQ ID NO: 328]
> 5000	0.012	KCNTATCTVQWLAHQIYQFTDKDKDNVAPATNVGSNG[Hyp]-NH2 (disulfide 2-7 (inferred); ends not checked) [SEQ ID NO: 316]
> 5000	0.032	KCNTATCTVQWLAHQIYQFDKDKDNVAPPTNVGSNG[Hyp]-NH2 (disulfide 2-7 (inferred); ends not checked) [SEQ ID NO: 329]
> 5000	0.009	KCNTATCTVQWLAHQIYQFTDKDKDNVPPTNVGSNG[Hyp]-NH2 (disulfide 2-7 (inferred); ends not checked) [SEQ ID NO: 318]
> 5000	0.013	KCNTATCTVQWLAHQIYQFTDKDKDNVAPRTEVGSNGY [SEQ ID NO: 334]
738	0.029	GCRFGTCTVQWLAHQIYQFTDKDKDNVAPRTKIGPQG[Hyp]-NH2 (disulfide 2-7 (inferred); ends not checked) [SEQ ID NO: 336]
> 5000	0.317	KCNTATCTVQWLAEQIYQFTDKDKDNVAPPYNEGSNG[Hyp]-NH2 (disulfide 2-7 (inferred); ends not checked) [SEQ ID NO: 321]
> 5000	0.018	KCNTATCTVQWLAHQIYQFTDKDKDNVAPTNVGSNG[Hyp]-NH2 (disulfide 2-7 (inferred); ends not checked) [SEQ ID NO: 319]
> 5000	0.014	GCRTGTCTVQWLAHQIYQFTDKDKDNVAPRTNVGPQG[Hyp]-NH2 (disulfide 2-7 (inferred); ends not checked) [SEQ ID NO: 323]
> 5000	0.009	KCNTATCTVQWLAHQIYQFTDKAKDNVAPPTNVGSNG[Hyp]-NH2 (disulfide 2-7 (inferred); ends not checked) [SEQ ID NO: 320]
> 5000	0.028	KCNTATCTVQWLAHQIYQFTDKDKDAVAPPTNVGSNG[Hyp]-NH2 (disulfide 2-7 (inferred); ends not checked) [SEQ ID NO: 324]
> 5000	0.004	KCNTATCTVQWLAHQIYQFTKDKDNVAPPTNVGSNG[Hyp]-NH2 (disulfide 2-7 (inferred); ends not checked) [SEQ ID NO: 317]
107	0.236	KCNAATCTVQWLAEQIYQFTDKDKDNVAPPTNVGSNG[Hyp]-NH2 (disulfide 2-7 (inferred); ends not checked) [SEQ ID NO: 333]
1390	0.014	GCRFGTCTVQWLAHQIYQFTDKDKDNVAPRTKVGPQG[Hyp]-NH2 (disulfide 2-7 (inferred); ends not checked) [SEQ ID NO: 322]
> 5000	0.09	GCRFGTCTVQWLAHFLYQFTDKDKDNVAPRTNVGSNTY [SEQ ID NO: 327]
> 5000	0.053	GCRFGTCTVQWLAHFLYQFTDKDKDNVAPRTNVGPQGY [SEQ ID NO: 326]
> 5000	0.015	GCRTGTCTVQWLAHQIYQFTDKDKDNVAPRTNVGPQGY [SEQ ID NO: 335]
3570	0.006	GCRFGTCTVQWLAHQIYQFTDKDKDNVAPRTNIGPNG[Hyp]-NH2 (disulfide 2-7 (inferred); ends not checked) [SEQ ID NO: 331]
> 5000	0.025	KCNTATCTVQWLAHQIYQFTDKDKDNVAAPTNVGSNG[Hyp]-NH2 (disulfide 2-7 (inferred); ends not checked) [SEQ ID NO: 325]

Reference: patent publication US12139520B2 (priority 2020, dated 2024)
